Target: T1, human plasma kallikrein (human, UniProt P03952 20-390; P03952 391-638)
T1 construct: two disulfide-linked chains; NP_000883.2; also called pKal; hpKal
Assay: ELISA, biotinylated pKal signal over streptavidin background

T1 sequence (P03952 20-390 limits assumed, chain 1 of 2): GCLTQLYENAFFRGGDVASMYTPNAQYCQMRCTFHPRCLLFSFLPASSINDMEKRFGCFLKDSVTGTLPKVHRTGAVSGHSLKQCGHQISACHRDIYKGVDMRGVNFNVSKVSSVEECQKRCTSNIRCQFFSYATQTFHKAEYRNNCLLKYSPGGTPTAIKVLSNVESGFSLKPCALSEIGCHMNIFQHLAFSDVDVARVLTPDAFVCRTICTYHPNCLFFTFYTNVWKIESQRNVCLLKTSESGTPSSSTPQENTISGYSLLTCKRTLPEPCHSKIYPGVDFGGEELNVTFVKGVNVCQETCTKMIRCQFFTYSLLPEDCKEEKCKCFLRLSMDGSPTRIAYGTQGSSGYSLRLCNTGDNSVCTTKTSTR
T1 sequence (P03952 391-638 limits assumed, chain 2 of 2): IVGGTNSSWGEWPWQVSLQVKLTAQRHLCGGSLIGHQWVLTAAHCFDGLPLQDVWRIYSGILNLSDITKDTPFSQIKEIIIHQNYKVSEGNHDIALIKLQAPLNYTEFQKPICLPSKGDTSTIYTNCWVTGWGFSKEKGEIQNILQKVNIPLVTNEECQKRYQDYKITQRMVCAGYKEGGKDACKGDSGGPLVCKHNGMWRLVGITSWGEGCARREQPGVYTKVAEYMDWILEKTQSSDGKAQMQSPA

| Binder | ELISA (T/B) |
| --- | --- |
| M11-E06 (Fab, V domains shown) VH: EVQLLESGGGLVQPGGSLRLSCAASGFTFSQYAMHWVRQAPGKGLEWVSSIYPSGGFTLYADSVKGRFTISRDNSKNTLYLQMNSLRAEDTAMYYCARGGWLAGGELLNWGQGTLVTVSS VL: DIQMTQSPSSLSASIGDRVTISCRASRGIGTYLNWYQQHAGKAPKLLIRAASSLETGVPPRFSGSGSGTDFTLTISSLQSDDFATYYCQESFTNVYNFGQGTKLEIK | 12.6 |
| M11-G09 (Fab, V domains shown) VH: EVQLLESGGGLVQPGGSLRLSCAASGFTFSLYNMTWVRQAPGKGLEWVSYIYPSGGGTHYADSVKGRFTISRDNSKNTLYLQMNSLRAEDTAVYYCARDTGFWSADAFDIWGQGTMVTVSS VL: DIQMTQSPSSLSASVGDRVTITCRTSQGINHYLNWYQQKPGKAPKILVFAASELQTGVPSRFSGTGSGTSYTLTITSLQPEDVATYYCQQTYTSPYTFGQGTKLEVK | 23.6 |

Target: T1, human plasma kallikrein
Assay: as above
Remark: another data set of the same source

| Binder | ELISA (T/B) |
| --- | --- |
| M41-A11 (Fab, V domains shown) VH: EVQLLESGGGLVQPGGSLRLSCAASGFTFSHYRMSWVRQAPGKGLEWVSSIYPSGGRTVYADSVKGRFTISRDNSKNTLYLQMNSLRAEDTAVYYCAKDKFEWRLLFRGIGNDAFDIWGQGTMVTVSS VL: QSVLTQPPSVSVSPGQTASITCSGDKLGDKYTSWYQQRPGQSPVLVIYQDIKRPSGIPERFSGSNSGNTATLTISGTQAMDEADYYCQAWDSPNARVFGSGTKVTVL | 28 |
| M145-D11 (Fab, V domains shown, also called 559A-M145-D11 (sFab); 559A-M0145-D11) VH: EVQLLESGGGLVQPGGSLRLSCAASGFTFSHYRMSWVRQAPGKGLEWVSSIYPSGGRTVYADSVKGRFTISRDNSKNTLYLQMNSLRAEDTAVYYCAKDKFEWRLLFRGIGNDAFDIWGQGTMVTVSS VL: QSVLTQPPSVSVSPGQTASITCSGDKLGDKYTSWYQQRPGQSPVLVIYQDIKRPSGIPERFSGSNSGNTATLTISGTQAMDEADYYCQAWDSPNARVFGSGTKVTVL | 40 |
| M152-A12 (Fab, V domains shown) VH: EVQLLESGGGLVQPGGSLRLSCAASGFTFSPYFMGWVRQAPGKGLEWVSGIGPSGGSTTYADSVKGRFTISRDNSKNTLYLQMNSLRAEDTAVYYCAREGPPYSSGWYRGLRQYHFDYWGQGTLVTVSS VL: DIQMTQSPSSLSASVGDRVTITCRASQSISSYLSWYQQRPGKAPNLLIYAASSLQSGVPSRFSGSGSGTDFTLTISSLQPEDFATYYCQQSISIPRTFGQGTKVEVK | 19 |
| M7-B04 (Fab, V domains shown) VH: EVQLLESGGGLVQPGGSLRLSCAASGFTFSWYSMVWVRQAPGKGLEWVSSISPSGGLTNYADSVKGRFTISRDNSKNTLYLQMNSLRAEDTAVYYCARHTAARPFYYYYMDVWGKGTTVTVSS VL: QSALTQPASVSGSPGQSITISCTGTNSDVGNYNLVSWYQQHPGEAPKLLIYEVNKRPSGVSNRFSGSKSGNTASLTISGLQAEDEADYLCCSYAGNRNFYVFGAGTKVTVL | 4.1 |
| M29-E09 (Fab, V domains shown) VH: EVQLLESGGGLVQPGGSLRLSCAASGFTFSWYEMGWVRQAPGKGLEWVSSIYSSGGGTMYADSVKGRFTISRDNSKNTLYLQMNSLRAEDTAVYYCARNPQYSGYDRSLSDGAFDIWGQGTMVTVSS VL: QYELTQPPSVSVSPGQTATITCSGDNLGNKYNSWYQQKPGQSPLLVIYQDTKRPSAIPERFSGSNSGNTATLTISGTQAMDEADYYCQAWDGNVVFGGGTKLTVL | 28.8 |
| M146-E12 (Fab, V domains shown, claim 26 (viii) gives VL 265 and VH 266 instead) VH: EVQLLESGGGLVQPGGSLRLSCAASGFTFSRYIMHWVRQAPGKGLEWVSSISPSGGLTSYADSVKGRFTISRDNSKNTLYLQMNSLRAEDTAVYYCAREFENAYHYYYYGMDVWGQGTTVTVSS VL: DIQMTQSPSSLSASVGDRVTITCRASGDIGNALGWYQQKPGKAPRLLISDASTLQSGVPLRFSGSGSGTEFTLTISSLQPEDFATYYCLQGYNYPRTFGQGTKLEIR | 49.6 |
| M161-C11 (Fab, V domains shown) VH: EVQLLESGGGLVQPGGSLRLSCAASGFTFSDYAMKWVRQAPGKGLEWVSSISSSGGVTQYADSVKGRFTISRDNSKNTLYLQMNSLRAEDTAVYYCAREEDYSSSWYSRRFDYYYGMDVWGQGTTVTVSS VL: QSALTQPPSVSVSPGQTASITCSGDKLGDKYVSWYQQRPGQSPVLVIYQDTKRPSGIPERFSGSNSGNTATLTISGTQAVDEADYYCQAWDSSTYVFGGGTKVTVL | 41.8 |
| M29-D09 (Fab, V domains shown, also called 559A-M29-D09 (sFab); 559A-M0029-D09) VH: EVQLLESGGGLVQPGGSLRLSCAASGFTFSWYTMVWVRQAPGKGLEWVSYIYPSGGATFYADSVKGRFTISRDNSKNTLYLQMNSLRAEDTAVYYCAMGSYDYIWGFYSDHWGQGTLVTVSS VL: QSALTQPPTVSVSPGQTARITCSGNKLGDKYVAWYQQKPGQSPMLVIYQDTKRPSRVSERFSGSNSANTATLSISGTQALDEADYYCQAWDSSIVIFGGGTRLTVL | 47.5 |
| M27-E05 (Fab, V domains shown) VH: EVQLLESGGGLVQPGGSLRLSCAASGFTFSWYLMIWVRQAPGKGLEWVSYIYPSGGFTYYADSVKGRFTISRDNSKNTLYLQMNSLRAEDMAVYYCARTEGPLSWGYGMDVWGQGTTVTVSS VL: not shown | 41.3 |
| M7-E07 (Fab, V domains shown) VH: EVQLLESGGGLVQPGGSLRLSCAASGFTFSWYLMIWVRQAPGKGLEWVSYIYPSGGFTYYADSVKGRFTISRDNSKNTLYLQMNSLRAEDMAVYYCARTEGPLSWGYGMDVWGQGTTVTVSS VL: not shown | 45.7 |
| M38-F02 (Fab, V domains shown) VH: EVQLLESGGGLVQPGGSLRLSCAASGFTFSYYMMVWVRQAPGKGLEWVSYIYSSGGHTVYADSVKGRFTISRDNSKNTLYLQMNSLRAEDTAVYYCARDLFLYDFWSKGAFDIWGQGTMVTVSS VL: QSVLTQPPSVSVSPGQTASITCSGEKLGDKYVSWYQQKPGQSPSLVICEDSRRPSGIPERFSGSNSGNTATLTISGAQPMDEADYYCQAWDSSTAIFGPGTKVTVL | 33.5 |
| M76-D01 (Fab, V domains shown) VH: EVQLLESGGGLVQPGGSLRLSCAASGFTFSFYAMHWVRQAPGKGLEWVSGIVPSGGRTHYADSVKGRFTISRDNSKNTLYLQMNSLRAEDTAVYYCATDSSGSPNPLFDYWGQGTLVTVSS VL: DIVMTQTPPSLPVNPGEPASISCRSSQSLSDDGNTYLDWYLQRPGQSPQLLIHTLSYRASGVPDRFSGSGSGTDFTLKISRVEAEDVGVYYCMQGTHWPPTFGQGTKVEIK | 11.2 |
| M142-H08 (antibody, V domains shown, tested as Fab (Ki,app) and as human IgG (SPR); the IgG is cleaved in HC CDR3 after WFR) VH: EVQLLESGGGLVQPGGSLRLSCAASGFTFSAYSMIWVRQAPGKGLEWVSYIRPSGGRTTYADSVKGRFTISRDNSKNTLYLQMNSLRAEDTAVYYCARGGLLLWFRELKSNYFDYWGQGTLVTVSS VL: DIQMTQSPSSLSAFVGDRVTITCRASQPIDNYLNWYHQKPGKAPKLLIYAASRLQSGVPSRLSGSGFGTDFTLTISSLQPEDFGNYYCQQSYTVPYTFGGGTKVEIR | 29.9 |
| M160-G12 (antibody, V domains shown, phage-derived Fab; also called R84-D02) VH: EVQLLESGGGLVQPGGSLRLSCAASGFTFSHYLMTWVRQAPGKGLEWVSYISPSGGHTIYADSVKGRFTISRDNSKNTLYLQMNSLRAEDTAVYYCARVARGIAARSRTSYFDYWGQGTLVTVSS VL: DIQMTQSPSFLSASVGDRVTITCRASQGISSYLAWYQQKPGKAPKLLIYAASTLQSGVPSRFSGSGSGTEFTLTISSLQPEDFATYYCQQLNSYPLTFGGGTKVEIK | 38.3 |
| M137-E12 (Fab, V domains shown) VH: EVQLLESGGGLVQPGGSLRLSCAASGFTFSDYRMQWVRQAPGKGLEWVSVIVPSGGNTMYADSVKGRFTISRDNSKNTLYLQMNSLRAEDTAVYYCARGGPGSSIAARRAPTGYYGMDVWGQGTTVTVSS VL: QSVLIQPPSVSGIPGQRVTISCSGNNSNFGSNTVTWYQQLPGTAPKLLIYSDSRRPSGVPDRFSGSRSDTSASLAISGLQSEDEAEYHCAAWDDSLNGVFGGGTKLTVL | 4.5 |
| M110-C12 (Fab, V domains shown) VH: EVQLLESGGGLVQPGGSLRLSCAASGFTFSYYEMDWVRQAPGKGLEWVSGISSSGGHTAYADSVKGRFTISRDNSKNTLYLQMNSLRAEDTATYYCARERRSSSRARYYYGMDVWGQGTTVTVSS VL: DIQMTQSPLSLSVTPGEPASISCRSSLSLLHSNGYNYLDWYVQRPGQSPQLLMYLSSTRASGVPDRFSGSGSGTDFTLEISRVEAEDVGVYYCMQPLETPPTFGGGTKVEIK | 2.4 |
| M73-D06 (Fab, V domains shown) VH: EVQLLESGGGLVQPGGSLRLSCAASGFTFSRYEMYWVRQAPGKGLEWVSSISSSGGPTAYADSVKGRFTISRDNSKNTLYLQMNSLRAEDTAMYYCAKGTPKWELLLRSIYIENAFDIWGQGTMVTVSS VL: QSELTQPPSASETPGQRVTISCSGSSSNIGSNTVSWFQQLPGSAPRLLIYNDHRRPSGVPDRFSGSKSGTSASLVISGLQSQDEADYYCSAWDDSLNGVVFGGGTKLTVL | 4 |
| M162-A04 (antibody, V domains shown, phage-derived Fab; also called R84-H05; M162-A4) VH: EVQLLESGGGLVQPGGSLRLSCAASGFTFSHYIMMWVRQAPGKGLEWVSGIYSSGGITVYADSVKGRFTISRDNSKNTLYLQMNSLRAEDTAVYYCAYRRTGIPRRDAFDIWGQGTMVTVSS VL: DIQMTQSPSTLSASVGDRVTITCRASQSISSWLAWYQQKPGKAPNLLIYKASTLESGVPSRFSGSGSGTEFTLTISSLQPDDFATYYCQQYNTYWTFGQGTKVEIK | 11.4 |
| M35-G04 (Fab, V domains shown, also called 559A-M35-G04; 559A-M0035-G04) VH: EVQLLESGGGLVQPGGSLRLSCAASGFTFSYYHMSWVRQAPGKGLEWVSVISPSGGSTKYADSVKGRFTISRDNSKNTLYLQMNSLRAEDTAVYYCARGGSSDYAWGSYRRPYYFDYWGQGTLVTVSS VL: DIQMTQSPATLSLSPGERATLSCRASQSVSSYLAWYQQKPGQAPRLLIYDASNRATGIPARFSGSGSGTDFTLTISSLEPEDFAVYYCQQRSNWPRGFTFGPGTKVDIK | 11.1 |
| M145-D01 (Fab, V domains shown) VH: EVQLLESGGGLVQPGGSLRLSCAASGFTFSYYHMSWVRQAPGKGLEWVSVISPSGGSTKYADSVKGRFTISRDNSKNTLYLQMNSLRAEDTAVYYCARGGSSDYAWGSYRRPYYFDYWGQGTLVTVSS VL: DIQMTQSPATLSLSPGERATLSCRASQSVSSYLAWYQQKPGQAPRLLIYDASNRATGIPARFSGSGSGTDFTLTISSLEPEDFAVYYCQQRSNWPRGFTFGPGTKVDIK | 6.2 |

— patent publication US20260176378A1 (DYAX, published 2026)
